Test results published in paper PMC11058611, “Characterization of a novel GH30 non-specific endoxylanase AcXyn30B from Acetivibrio clariflavus” (Applied Microbiology and Biotechnology, 2024).

Tests used:
[1] = substrate: O=[N+]([O-])c1ccc(O[C@@H]2OC[C@@H](O[C@@H]3OC[C@@H](O[C@@H]4OC[C@@H](O)[C@H](O)[C@H]4O)[C@H](O)[C@H]3O)[C@H](O)[C@H]2O)cc1; assay: purified protein; format: biochemical, Acetivibrio clariflavus; details: 50 mM sodium phosphate buffer, pH 6, 40 °C, 0.05–1 mM substrate
[2] = substrate: O=[N+]([O-])c1ccc(O[C@@H]2OC[C@@H](O[C@@H]3OC[C@@H](O)[C@H](O)[C@H]3O)[C@H](O)[C@H]2O)cc1; assay: purified protein; format: biochemical, Acetivibrio clariflavus; details: 50 mM sodium phosphate buffer, pH 6, 40 °C, 0.05–1 mM substrate

B1: AcXyn30B (Acetivibrio clariflavus DSM 19732) (protein)
chain: SYTASVDVNTTYQTLEGFGAAIAWYNDYLTTHPNKNDLYRILFYDSGLDILRLRNQYRNSNNFGYDDMEIVKYGKIMNPNLKVLLSSWSPPSDLKRNGVMNGGTLAKENGSFVYEKFADYWYNSLVAYRAKGIIPDYISIQNEPEYESGDWETCIFRETETSEYPSYAKALDAVYEKIKDLPDMPKILGVESAGIMNNTVQNYARYMDLSKVYGIAHHLYNGGDPYNPDSFNDIFRSLARDFADKPLFMTEYDYGTPFTTAELIHNSLVVEGVSGYFYWDLIWENSQRPLVAIEVPRNPEQWTTKEGYIISDFYYIMQQFAKFTDPGYKRVDASVSSNDIKVSAFVSPDKSKLTMIFINKGYSEHSVALDLKGYSSNKSIIYRTLPEGNERFKKVGSLFGNTVTLPARSVVTVALGVDDEEQIPPQLPTPTPKPESRSAYDIIQAEDYNEMYGIQCETIADDGNKNVAYIENGDYILFKGVDFGTGATGFEASVASAESGGAIEIRLDELYGTTVVKIPVSGTGDWHNYVTVKADIPEIKGKHDLYLVFTGGGGYLFNIDWFVFTGGTVENPVPEVIYGDVNGDGDFNSIDYGYLKMYLLGQIKEFPSKDGMIAADVNGDGTVNSIDYAYMKMRLLGQISKFPVE
notes: purchased from NZYTech (CZ0917); full-length 673 aa: signal peptide 28 aa, GH30 29-446, CBM6 469-593, dockerin 602-673
With B1 the Km [1] was 230 µM, the kcat [1] was 10.4 s⁻¹ and the kcat/Km [1] was 56100 M⁻¹ s⁻¹. The Km [2] was 210 µM, the kcat [2] was 7.4 s⁻¹ and the kcat/Km [2] was 34900 M⁻¹ s⁻¹.
